Data published in US8741844B2, “Use of mutated antithrombins for treating or preventing coagulation disorders” (Universite Paris-Sud XI, priority 2007, dated 2014).
Residue numbers refer to the chain shown, from its start. One block for each molecule: values may come before it.

What was measured:
[1] = system: pentasaccharide bound plasma antithrombin (plasma anti-factor Xa activity); assay: Rotachrom heparin anti factor Xa assay in pentasaccharide containing human plasma (competition with plasma antithrombin for pentasaccharide binding); type: biochemical; conditions: for effect on anti-Xa activity of pentasaccharide containing plasma sample: human plasma, pre-incubation 30 min at 37° C.
Method: Anti factor Xa inhibitory activity of mutated antithrombins AT-R393H(SEQ ID NO: 4), AT-Pro394 (SEQ ID NO: 6), AT-ΔR393-5394 (SEQ ID NO: 18), AT-ΔR393 (SEQ ID NO: 8), AT-ΔS394 (SEQ ID NO: 10), AT-N135Q-R393H(SEQ ID NO: 14), AT-N135Q-Pro394 (SEQ ID NO: 16), AT-N135Q-ΔR393-S394 (SEQ ID NO: 24), AT-N135Q-ΔR393 (SEQ ID NO: 20), AT-N135Q-ΔS394 (SEQ ID NO: 22) is measured in pentasaccharide containing plasma. The plasma concentrations of pentasaccharides are defined on the basis on those measured in patients treated by the pentasaccharide under the conditions of a regular (curative) use of this molecule or in patients presenting an overdose of this drug, knowing that the optimal equilibrium concentration is 1.20-1.26 mg/L and the minimal equilibrium concentration is 0.46-0.62 mg/L during a curative pentasaccharide treatment (monograph, Arixtra®).
The anti factor Xa assay is performed using the Rotachrom® heparin method (Stago) adaptated for absorbance reading on a microplate reader (Dynatech MR 5000), or a STA analyser (Stago).
The procedure consists in mixing 30 μl of pentasaccharide containing plasma sample diluted four times in kinetic buffer, with 75 μl of chromogenic substrate (1 mM, provided in Rotachrom® heparin kit). After 4 min incubation, 75 μl of bovine factor Xa (24 nM, Rotachrom® heparin kit) is added to the plasma-substrate mixture. The factor Xa activity is measured a 405 nm absorbance increase, resulting from cleavage of the chromogenic substrate, using a microplate reader (Dynatech MR 5000). The rate constant (k), proportional to anti-factor Xa activity, is obtained by fitting the substrate hydrolysis curve to equation (3) or (3′).
Firstly, the assay is calibrated in citrated (0.105 M) normal human plasma containing pentasaccharide concentrations ranging from 0 to 3 mg/L. A standard curve is generated and anti-factor Xa activity is expressed as mg of pentasaccharide per liter of plasma.
Secondly, to evaluate the anti factor Xa inhibitory activity of mutated antithrombins, the mutated antithrombin (0-0.6 g/L, preferably 0.15-0.6 g/L, final concentration, in kinetic buffer) is pre-incubated with an equal volume of pentasaccharide (0-3 mg/L, preferably 1-3 mg/L) containing plasma samples, during 30 min at 37° C.
Under these conditions, the mutated antithrombin concentration range from one to four times that of the plasma antithrombin level, which is compatible with a therapeutic use of antithrombin. Indeed, very high doses of mutated antithrombin, with a 5 fold increase in plasma antithrombin level, have already been used during clinical trials without side effects (Leitner J M, Firbas C, Mayr F B, Reiter R A, Steinlechner B, Jilma B., Recombinant human antithrombin inhibits thrombin formation and interleukin 6 release in human endotoxemia. Clin Pharmacol Ther. 2006 January; 79(1):23-34). Anti factor Xa inhibitory activity is then evaluated as previously described.
To estimate whether mutated antithrombin can be used as reversal of pentasaccharide in case of over-dosing, AT-N135Q-R393H(SEQ ID NO: 14) and AT-N135Q-Pro394 (SEQ ID NO: 16) are tested in Rotachrom® heparin assay for their ability to restore factor Xa activity. Under conditions of treatment for prevention of venous thromboembolic events, optimal pentasaccharide concentration ranges between 1.2 and 1.26 μg/mL in plasma. To mimic an over-dosing, pentasaccharide is added to human plasma pool at concentration of 3 μg/ml. Rotachrom® heparin assay is then performed by incubation of plasma over-dosed with pentasaccharide in the presence of mutated antithrombin in a ratio 1/1, 2/1, and 4/1 compared to plasma antithrombin concentration (i.e. 0.15, 0.3, 0.6 g/l). In this ex vivo assay, anti-factor Xa activity is proportional to the amount of pentasaccharide bound natural antithrombin present in tested plasma, which amount is directly proportional to pentasaccharide concentration in plasma. […]

[2] = system: plasma anti FXa activity in mice treated with pentasaccharide; assay: Murine model: mutated antithrombins as antidotes of fondaparinux, plasma anti FXa activity; type: in vivo, mouse; conditions: injection of mutated antithrombin after fondaparinux
Method: The efficiency of the mutated antithrombins AT-R393H(SEQ ID NO: 4), AT-Pro394 (SEQ ID NO: 6), AT-ΔR393-S394 (SEQ ID NO: 18), AT-ΔR393 (SEQ ID NO: 8), AT-ΔS394 (SEQ ID NO: 10), AT-N135Q-R393H(SEQ ID NO: 14), AT-N135Q-Pro394 (SEQ ID NO: 16), AT-N135Q-ΔR393-S394 (SEQ ID NO: 24), AT-N135Q-ΔR393 (SEQ ID NO: 20), AT-N135Q-A5394 (SEQ ID NO: 22) as antidotes is evaluated in a murine model.
The different drugs to be tested (fondaparinux, low molecular weight heparin, full length heparin and the mutated antithrombins) are administrated by intra-venous injection in the caudal vein to avoid the variability encountered when administration is performed subcutaneously. However, Heparin derivatives (fondaparinux, low molecular weight heparin and full length heparin) could also be administrated subcutaneously.
The blood is collected by punction in cave vein into tubes containing 0.105 mol/L trisodium citrate (1:10). Platelet-poor plasma is obtained by centrifugation at 2300 g for 10 minutes at 12° C. and stored at −80° C. until use.
The following elements are determined: • the doses of fondaparinux inducing an overdose in mice, • the mutated antithrombins time course, and in particular the time required to observe a maximal biological effect, • the minimal doses of mutated antithrombins necessary to neutralize fondaparinux.
For each of these experiments, 4 groups of 5 mice each are used: • In the first group mice receive fondaparinux vehicle and then antidote (mutated antithrombin) vehicle. • In the second group, mice receive fondaparinux and then antidote vehicle • In the third group, mice receive fondaparinux vehicle and then antidote • In the last group, mice receive fondaparinux and then antidote
Anti FXa activity measurements is performed as previously described using a Stachrom Heparin® kit on a STA (Stago, France) or a Rotachrom Heparin® kit with procedure adapted for measurement in microplate reader (Dynatech MR 5000). A calibration curve with pentasaccharide is performed, allowing the expression of the results in nmol/ml (or in mg/L) of plasma.
Thus, the antidote (mutated antithrombins) is administered intravenously, 5 min after the intra-venous injection of the fondaparinux, and 5, 15 or 30 min after the subcutaneous injection of the fondaparinux.
The mutated antithrombin time course is studied by measuring the plasma anti-Xa activity 5 min, 10 min, 20 min and 40 min after the antidote administration.
Once the time of action determined, a dose response curve is performed in vivo to determine the dose of antidote necessary to obtain a decrease in Fondaparinux plasma concentration within the therapeutic range around 1.2 nmol/ml (or 2 mg/L), or around 0.7 nmol/ml (or 1.2 mg/L).

effect on anti-Xa activity of pentasaccharide containing plasma sample [1]: significant decrease
B1: AT-ΔR393: human antithrombin with deletion of the amino acid at position 393 (protein, listed as Homo sapiens)
chain: HGSPVDICTAKPRDIPMNPMCIYRSPEKKATEDEGSEQKIPEATNRRVWELSKANSRFATTFYQHLADSKNDNDNIFLSPLSISTAFAMTKLGACNDTLQQLMEVFKFDTISEKTSDQIHFFFAKLNCRLYRKANKSSKLVSANRLFGDKSLTFNETYQDISELVYGAKLQPLDFKENAEQSRAAINKWVSNKTEGRITDVIPSEAINELTVLVLVNTIYFKGLWKSKFSPENTRKELFYKADGESCSASMMYQEGKFRYRRVAEGTQVLELPFKGDDITMVLILPKPEKSLAKVEKELTPEVLQEWLDELEEMMLVVHMPRFRIEDGFSLKEQLQDMGLVDLFSPEKSKLPGIVAEGRDDLYVSDAFHKAFLEVNEEGSEAAASTAVVIAGSLNPNRVTFKANRPFLVFIREVPLNTIIFMGRVANPCVK
plasma anti FXa activity in mice treated with pentasaccharide [2]: significant decrease

effect on anti-Xa activity of pentasaccharide containing plasma sample [1]: significant decrease
B2: AT-ΔS394: human antithrombin with deletion of the amino acid at position 394 (protein, listed as Homo sapiens)
chain: B1 chain with S393R
plasma anti FXa activity in mice treated with pentasaccharide [2]: significant decrease

effect on anti-factor Xa activity at concentration equal to plasmatic antithrombin concentration ([1]; human plasma with 3 μg/ml pentasaccharide, ratio 1/1): significantly decrease
effect on anti-Xa activity of pentasaccharide containing plasma sample [1]: significant decrease
B3: AT-Pro394: human antithrombin with insertion of a Proline between positions 393 and 394 (protein, listed as Homo sapiens)
chain: HGSPVDICTAKPRDIPMNPMCIYRSPEKKATEDEGSEQKIPEATNRRVWELSKANSRFATTFYQHLADSKNDNDNIFLSPLSISTAFAMTKLGACNDTLQQLMEVFKFDTISEKTSDQIHFFFAKLNCRLYRKANKSSKLVSANRLFGDKSLTFNETYQDISELVYGAKLQPLDFKENAEQSRAAINKWVSNKTEGRITDVIPSEAINELTVLVLVNTIYFKGLWKSKFSPENTRKELFYKADGESCSASMMYQEGKFRYRRVAEGTQVLELPFKGDDITMVLILPKPEKSLAKVEKELTPEVLQEWLDELEEMMLVVHMPRFRIEDGFSLKEQLQDMGLVDLFSPEKSKLPGIVAEGRDDLYVSDAFHKAFLEVNEEGSEAAASTAVVIAGRPSLNPNRVTFKANRPFLVFIREVPLNTIIFMGRVANPCVK
virtual pentasaccharide concentration at 2 or 4 fold molar excess compared to natural antithrombin ([1]; human plasma with 3 μg/ml pentasaccharide): decreases to a level comparable to curative pentasaccharide treatment
plasma anti FXa activity in mice treated with pentasaccharide [2]: significant decrease

effect on anti-Xa activity of pentasaccharide containing plasma sample [1]: significant decrease
B4: AT-ΔR393-S394: human antithrombin with deletion of the amino acids at positions 393 and 394 (protein, listed as Homo sapiens)
chain: HGSPVDICTAKPRDIPMNPMCIYRSPEKKATEDEGSEQKIPEATNRRVWELSKANSRFATTFYQHLADSKNDNDNIFLSPLSISTAFAMTKLGACNDTLQQLMEVFKFDTISEKTSDQIHFFFAKLNCRLYRKANKSSKLVSANRLFGDKSLTFNETYQDISELVYGAKLQPLDFKENAEQSRAAINKWVSNKTEGRITDVIPSEAINELTVLVLVNTIYFKGLWKSKFSPENTRKELFYKADGESCSASMMYQEGKFRYRRVAEGTQVLELPFKGDDITMVLILPKPEKSLAKVEKELTPEVLQEWLDELEEMMLVVHMPRFRIEDGFSLKEQLQDMGLVDLFSPEKSKLPGIVAEGRDDLYVSDAFHKAFLEVNEEGSEAAASTAVVIAGLNPNRVTFKANRPFLVFIREVPLNTIIFMGRVANPCVK
plasma anti FXa activity in mice treated with pentasaccharide [2]: significant decrease
